{"source": "patent US20230212266A1", "about": "(FRED HUTCHINSON CANCER CENTER, published 2023)", "binders": {"B1": {"name": "CV2-70 (antibody, V domains shown)", "VH": "QVQLVQSGAEVKKPGSSVKVSCKASGGTFSSYAITWVRQAPGQGLEWMGGIIPIFGTANYAQKFQGRLTITADDSTSTAYMELSSLKSEDTAVYYCARFRAYDSSGYGPDYWGQGTLVTVSS", "VL": "EIVLTQSPATLSLSPGERATLSCRASQSVSSYLAWYQQKPGQAPRLLIYDASNRATGIPARFSGSGSGTDFTLTISSLEPEDFAVYYCQQRSNWPPSITFGQGTRLEIK"}, "B2": {"name": "CV32 (antibody, V domains shown)", "VH": "not shown", "VL": "QSVLTQPPSVSAAPGQKVTISCSGSSSNIGNNYVSWYQQLPGTAPKLLIYDNNKRPSGIPDRFSGSKSGTSATLGITGLQTGDEADYYCGTWDSSLSAVVFGGGTKLTVL", "notes": "expressed as IgG"}, "B3": {"name": "CV2-62 (antibody, V domains shown)", "VH": "EVQLVESGGGLVQPGGSLRLSCAASGFTFSSYEMNWVRQAPGKGLEWVSYISSSGSTIYYADSVKGRFTISRDNAKNSLYLQMNSLRAEDTAVYYCARVPRPPWDDFWSGYLYYFDYWGQGTLVTVSS", "VL": "DIQMTQSPSSLSASVGDRVTITCRASQGISNYLAWYQQKPGKVPKLLIYAASTLQSGVPSRFSGSGSGTDFTLTISSLQPEDVATYYCQKYNSAPPGFTFGPGTKVDIK"}, "B4": {"name": "CV23 (antibody, V domains shown)", "VH": "QVQLVQSGAEVKKPGASVKVSCKASGYTFTSYAMHWVRQAPGQRLEWMGWINAGNGNTKYSQKFQGRVTITRDTSASTAYMELSSLRSEDTAVYYCARVWGYCSGGSCYVDAFDIWGQGTMVTVSS", "VL": "not shown", "notes": "expressed as IgG"}, "B5": {"name": "CV2-64 (antibody, V domains shown)", "VH": "QLQLQESGPGLVKPSETLSLTCTVSGGSISSSSYYWGWIRQPPGKGLEWIGSIYYSGSTYYNPSLKSRVTISVDTSKNQFSLKLSSVTAADTAVYYCARLSGIFGVVIIPGFFDYWGQGTLVTVSS", "VL": "not shown"}, "B6": {"name": "CV2-63 (antibody, V domains shown)", "VH": "QVQLVESGGGVVQPGRSLRLSCAASGFTFSSYAMHWVRQAPGKGLEWVAVISYDGDNKYYADSVKGRFTISRDNSKNTLYLQMNSLRAEDTAVYYCARDPTAVTGPFDYWGQGTLVTVSS", "VL": "SYELTQPLSVSVALGQTARITCGGNNIGSKNVHWYQQKPGQAPVLVIYRDSNRPSGIPERFSGSNSGNTATLTISRAQAGDEADYFCQVWDSSTVVFGGGTKLTVL"}, "B7": {"name": "CV21 (antibody, V domains shown)", "VH": "not shown", "VL": "EIVLTQSPATLSLSPGERATLSCRASQSVSSYLAWYQQKPGQAPRLLIYDASNRATGIPARFSGSGSGTDFTLTISSLEPEDFAVYYCQQRSNWPLTFGGGTKVEIK", "notes": "expressed as IgG"}, "B8": {"name": "CV2-73 (antibody, V domains shown)", "VH": "QVQLQESGPGLVKPSETLSLTCTVSGGSVSSGSYYWSWIRQPPGKGLEWIGYIYYSGSTNYKYSLKSRVTISVDTSKNQFSLKLSSVTAADTAVYYCAREKGGTEWEFNDAFDIWGQGTMVTVSS", "VL": "not shown"}, "B9": {"name": "CV2-74 (antibody, V domains shown)", "VH": "EVQLVQSGAEVKKPGESLRISCKGSGYSFTSYWISWVRQMPGKGLEWMGRIDPSDSYTNYSPSFQGHVTISADKSISTASLQWSSLKASDTAMYYCARQKRDGTTWAFDYWGQGTLVTASS", "VL": "not shown"}, "B10": {"name": "CV2 (antibody, V domains shown)", "VH": "QVQLVESGGGVVQPGRSLRLSCAASGFTFSSYAMHWVRQAPGKGLEWVAVISYDGSNKYYADSVKGRFTISRDNSKNTLYLQMNSLRAEDTAVYYCARVRGSYYLFDYWGQGTLVTVSS", "VL": "not shown", "notes": "expressed as IgG"}, "B11": {"name": "CV2-69 (antibody, V domains shown)", "VH": "EVQLLESGGGLVQPGGSLKLSCAASGFTFNSYAMTWVRQAPGKGLEWLSTISGSGGRTYYADSVKGRFAISRDNSKNTVFLQMSTLRAEDTAVYFCARDFYGLESFYPGIDSWGQGTLVTVSS", "VL": "SYELTQPSSVSVFPGQTARITCSGDVLEKKYARWFQQKPGQAPLLVIYKDSERPSGIPERFFGSSSGTTVTLTISGAQVEDEADYYCYSAADNNRGVFGGGTKLTVL"}, "B12": {"name": "CV22 (antibody, V domains shown)", "VH": "EVQLVESGGGLVKPGGSLRLSCAASGFTFSSYSMNWVRQAPGKGLEWVSSISSSSSYIYYADSVKGRFTISRDNAKNSLYLQMNSLRAEDTAVYYCARDRESYDILTGYSMEGCFDYWGQGTLVTVSS", "VL": "QLVLTQSPSASASLGASVKLTCTLSSGHSSYAIAWHQQQPEKGPRYLMKLNSDGSHSKGDGIPDRFSGSSSGAERYLTISSLQSEDEADYYCQTWGTGIRVFGGGTKLTVL", "notes": "expressed as IgG"}, "B13": {"name": "CV18 (antibody, V domains shown)", "VH": "QVQLVQSGAEVKKPGASVKVSCKVSGYTLTELSMHWVRQAPGKGLEWMGGFDPEDGETIYAQKFQGRVTMTEDTSTDTAYMELSSLRSEDTAVYYCATTSPIVGAITWFDPWGQGTLVTVSS", "VL": "QSVLTQPPSVSAAPGQKVTISCSGSSSNIGNNYVSWYQQLPGTAPKLLIYDNNKRPSGIPDRFSGSKSGTSATLGITGLQTGDEADYYCGTWDSSLSAGPVFGGGTKLTVL", "notes": "expressed as IgG"}, "B14": {"name": "CV2-67 (antibody, V domains shown)", "VH": "QVQLQESGPGLVKPSETLSLTCTVSGGSISSYYWSWIRQPPGKGLEWIGYIYYSGSTNYNPSLKSRVTISVDTSKNQFSLKLSSVTAADTAVYYCAGTYYDFWSGSTNYYGMDVWGQGTTVTVSS", "VL": "not shown"}, "B15": {"name": "CV15 (antibody, V domains shown)", "VH": "EVQLVESGGGLVQPGGSLRLSCAASGFTFSSYWMSWVRQAPGKGLEWVANIKQDGSEKYYVDSVKGRFTISRDNAKNSLYLQMNSLRAEDTAVYYCARDFNSYQLLWYYYYGMDVWGQGTTVTVSS", "VL": "QSALTQPRSVSGSPGQSVTISCTGTSSDVGGYNYVSWYQQHPGKAPKLMIYDVSKRPSGVPDRFSGSKSGNTASLTISGLQAEDEADYYCCSYAGSYTWVFGGGTKLTVL", "notes": "expressed as IgG"}, "B16": {"name": "CV25 (antibody, V domains shown)", "VH": "QVQLQESGPGLVKPSQTLSLTCTVSGGSISSGDYYWSWIRQPPGKGLEWIGYIYYSGSTYYNPSLKSRVTISVDTSKNQFSLKLSSVTAADTAVYYCARDHHYDFWSGYSSYYYYGMDVWGQGTTVTVSS", "VL": "not shown"}, "B17": {"name": "CV17 (antibody, V domains shown)", "VH": "not shown", "VL": "QSALTQPASVSGSPGQSITISCTGTSSDVGSYNLVSWYQQHPGKAPKLMIYEGSKRPSGVSNRFSGSKSGNTASLTISGLQAEDEADYYCCSYAGSSTYVFGTGTKVTVL", "notes": "expressed as IgG"}, "B18": {"name": "CV2-72 (antibody, V domains shown)", "VH": "EVQLVESGGGLVQPGGSLRLSCAASGFTVSTNYMSWVRQAPGKGLEWVSVIYSGGSTYYVDSVKGRFTISRDNSKNTLYLQMNSLRAEDTAVYYCASTNSGSYSHVFDIWGQGTMVTVSS", "VL": "not shown"}}, "key": {"[1]": {"target": "T1, SARS-CoV-2 receptor binding domain (RBD) (SARS-CoV-2, UniProt P0DTC2 319-591)", "test": "BLI: mAb on anti-human Fc probe, dipped in the antigen"}, "[2]": {"target": "T1, SARS-CoV-2 receptor binding domain (RBD)", "test": "BLI, mAb on anti-human Fc probe, antigen in solution"}, "[3]": {"target": "T1, SARS-CoV-2 receptor binding domain (RBD)", "test": "BLI: mAb on anti-human Fc probe, dipped in the antigen", "remark": "listed apart in the source"}, "[4]": {"target": "T1, SARS-CoV-2 receptor binding domain (RBD)", "test": "BLI, mAb on anti-human Fc probe, antigen in solution", "remark": "listed apart in the source"}, "[5]": {"target": "T1, SARS-CoV-2 receptor binding domain (RBD)", "test": "BLI: mAb on anti-human Fc probe, dipped in the antigen", "remark": "listed apart in the source"}, "[6]": {"target": "T1, SARS-CoV-2 receptor binding domain (RBD)", "test": "BLI: mAb on anti-human Fc probe, dipped in the antigen", "remark": "listed apart in the source"}, "[7]": {"target": "T1, SARS-CoV-2 receptor binding domain (RBD)", "test": "BLI, mAb on anti-human Fc probe, antigen in solution", "remark": "listed apart in the source"}, "[8]": {"target": "T1, SARS-CoV-2 receptor binding domain (RBD)", "test": "BLI: mAb on anti-human Fc probe, dipped in the antigen", "remark": "listed apart in the source"}, "[9]": {"target": "T1, SARS-CoV-2 receptor binding domain (RBD)", "test": "BLI: mAb on anti-human Fc probe, dipped in the antigen", "remark": "listed apart in the source"}, "[10]": {"target": "T1, SARS-CoV-2 receptor binding domain (RBD)", "test": "BLI, mAb on anti-human Fc probe, antigen in solution", "remark": "listed apart in the source"}, "[11]": {"target": "T1, SARS-CoV-2 receptor binding domain (RBD)", "test": "BLI: mAb on anti-human Fc probe, dipped in the antigen", "remark": "listed apart in the source"}, "[12]": {"target": "T1, SARS-CoV-2 receptor binding domain (RBD)", "test": "BLI, mAb on anti-human Fc probe, antigen in solution", "remark": "listed apart in the source"}, "[13]": {"target": "T1, SARS-CoV-2 receptor binding domain (RBD)", "test": "BLI, mAb on anti-human Fc probe, antigen in solution", "remark": "listed apart in the source"}, "[14]": {"target": "T1, SARS-CoV-2 receptor binding domain (RBD)", "test": "BLI: mAb on anti-human Fc probe, dipped in the antigen", "remark": "listed apart in the source"}, "[15]": {"target": "T1, SARS-CoV-2 receptor binding domain (RBD)", "test": "BLI, mAb on anti-human Fc probe, antigen in solution", "remark": "listed apart in the source"}, "[16]": {"target": "T1, SARS-CoV-2 receptor binding domain (RBD)", "test": "BLI, mAb on anti-human Fc probe, antigen in solution", "remark": "listed apart in the source"}, "[17]": {"target": "T1, SARS-CoV-2 receptor binding domain (RBD)", "test": "BLI, mAb on anti-human Fc probe, antigen in solution", "remark": "listed apart in the source"}, "[18]": {"target": "T1, SARS-CoV-2 receptor binding domain (RBD)", "test": "BLI: mAb on anti-human Fc probe, dipped in the antigen", "remark": "listed apart in the source"}}, "data": [{"binder": "B1", "values": [{"measurement": "binding result", "setting": "[1]", "value": "no binding"}]}, {"binder": "B2", "values": [{"measurement": "binding result", "setting": "[2]", "value": "no binding"}]}, {"binder": "B3", "values": [{"measurement": "binding result", "setting": "[3]", "value": "no binding"}]}, {"binder": "B4", "values": [{"measurement": "binding result", "setting": "[4]", "value": "no binding"}]}, {"binder": "B5", "values": [{"measurement": "binding result", "setting": "[5]", "value": "no binding"}]}, {"binder": "B6", "values": [{"measurement": "binding result", "setting": "[6]", "value": "no binding"}]}, {"binder": "B7", "values": [{"measurement": "binding result", "setting": "[7]", "value": "no binding"}]}, {"binder": "B8", "values": [{"measurement": "binding result", "setting": "[8]", "value": "no binding"}]}, {"binder": "B9", "values": [{"measurement": "binding result", "setting": "[9]", "value": "no binding"}]}, {"binder": "B10", "values": [{"measurement": "binding result", "setting": "[10]", "value": "no binding"}]}, {"binder": "B11", "values": [{"measurement": "binding result", "setting": "[11]", "value": "no binding"}]}, {"binder": "B12", "values": [{"measurement": "binding result", "setting": "[12]", "value": "no binding"}]}, {"binder": "B13", "values": [{"measurement": "binding result", "setting": "[13]", "value": "no binding"}]}, {"binder": "B14", "values": [{"measurement": "binding result", "setting": "[14]", "value": "no binding"}]}, {"binder": "B15", "values": [{"measurement": "binding result", "setting": "[15]", "value": "no binding"}]}, {"binder": "B16", "values": [{"measurement": "binding result", "setting": "[16]", "value": "no binding"}]}, {"binder": "B17", "values": [{"measurement": "binding result", "setting": "[17]", "value": "no binding"}]}, {"binder": "B18", "values": [{"measurement": "binding result", "setting": "[18]", "value": "no binding"}]}]}
